# Measurements from publication PMC2747274, “Structural Studies of a Four-MBT Repeat Protein MBTD1” (PLoS ONE, 2009).
# Where no end group is shown, it is not given here.
# B1: H4K20me2 peptide (used for co-crystallisation and ITC with L3MBTL1 R467C) (peptide)
# chain: RHRK(dimethyl)VLRDN
# Target: T1, human L3MBTL1 R467C mutant containing 3 MBT repeats (residues 200-522, 3MBT) (human)
# T1 construct: also called L3MBTL1 Arg467Cys mutant; source: expressed and purified as previously described [20]
# Assay: ITC; L3MBTL1 R467C mutant titrated with H4K20me2; data not shown
# Settings: both partners purified
binder,measurement,value
B1,stoichiometry N,1
